# Laboratory results taken from paper PMC3526301.
# B1: clone 9 (structured_DNA)
# DNA: AGCAGCACAGAGGTCAGATGGGTTGGTGTGGTTGGCATTCGTAACTATGGGGTTCCTGTATTGGTATAGGAGTCCGTGGTAGGGCAGGTTGGGGTGACTCCTATGCGTGCTACCGTGAA
# B2: clone 7 (structured_DNA)
# DNA: AGCAGCACAGAGGTCAGATGGGTTGGTGTGGTTGGCTCTGATAACCCGGGGCTGTGGTGCGCCAGGTAGGAGTCCGTGGTAGGGCAGGTTGGGGTGACTCCTATGCGTGCTACCGTGAA
# B3: clone 2 (structured_DNA)
# DNA: AGCAGCACAGAGGTCAGATGGGTTGGTGTGGTTGGCTGATACCGGAAGGGGTGTGTGTAGCGCGGTTGAGAGTCCGTGGTAGGGCAGGTTGGGGTGACTCCTATGCGTGCTACCGTGAA
# B4: clone 5 (structured_DNA)
# DNA: AGCAGCACAGAGGTCAGATGGGTTGGTGTGGTTGGCATTTTGACCGAATGACGTTAGCAAAATATGTTAGAGTCCGTGGTAGGGCAGGTTGGGGTGACTCCTATGCGTGCTACCGTGAA
# B5: clone 6 (structured_DNA)
# DNA: AGCAGCACAGAGGTCAGATGGGTTGGTGTGGTTGGCGAGGACGCTGTGTGCGCTTCGAGGGCCTAGAAGGAGTCCGTGGTAGGGCAGGTTGGGGTGACTCCTATGCGTGCTACCGTGAA
# B6: clone 4 (structured_DNA)
# DNA: AGCAGCACAGAGGTCAGATGGGTTGGTGTGGTTGGCTGGTCTGGGGGCGTTTACTGGGCGCGCATTTTAAAGTCCGTGGTAGGGCAGGTTGGGGTGACTCCTATGCGTGCTACCGTGAA
# B7: clone 1 (structured_DNA)
# DNA: AGCAGCACAGAGGTCAGATGGGTTGGTGTGGTTGGAGCGGACTTTACCTGTGTCAGCTGCGGGGGCCGCAAGTCCGTGGTAGGGCAGGTTGGGGTGACTCCTATGCGTGCTACCGTGAA
# B8: clone 10 (structured_DNA)
# DNA: AGCAGCACAGAGGTCAGATGGGTTGGTGTGGTTGGTTTGCCGATGTGTGGACAGCATGTGGGGTAGAGCGAGTCCGTGGTAGGGCAGGTTGGGGTGACTCCTATGCGTGCTACCGTGAA
# B9: clone 3 (structured_DNA)
# DNA: AGCAGCACAGAGGTCAGATGGGTTGGTGTGGTTGGTGAGTCGACTGTGTGCCTCAAGTAGAACGTAGGTGAGTCCGTGGTAGGGCAGGTTGGGGTGACTCCTATGCGTGCTACCGTGAA
# B10: TBV-08 without primer sites (structured_DNA)
# DNA: GGTTGGTGTGGTTGGTGAGACCTTGCATGCGACTTGGTGAGCACGTGAGAAGTCCGTGGTAGGGCAGGTTGGGGTGACT
# B11: TBV-08 (clone 8) (structured_DNA)
# DNA: AGCAGCACAGAGGTCAGATGGGTTGGTGTGGTTGGTGAGACCTTGCATGCGACTTGGTGAGCACGTGAGAAGTCCGTGGTAGGGCAGGTTGGGGTGACTCCTATGCGTGCTACCGTGAA
# Target: T1, human alpha-thrombin (Homo sapiens, UniProt P00734;P00734 315-363;364-622)
# Assay: bead-based fluorescence binding; 50 pM aptamer; 50 mM Tris, 100 mM NaCl, 1 mM MgCl2, 5 mM KCl, 1 mM CaCl2, 0.01% Tween 20, pH 7.5 (selection buffer), 1 h room temperature, wa
row,Binder,binding result
1,B1,binds
2,B2,binds
3,B3,binds
4,B4,binds
5,B5,binds
6,B6,binds
7,B7,binds
8,B8,binds
9,B9,binds

# Target: T1, human alpha-thrombin
# Assay: bead-based fluorescence binding; apparent Kd; Figure S7 legend gives 430 pM; 50 mM Tris, 100 mM NaCl, 1 mM MgCl2, 5 mM KCl, 1 mM CaCl2, 0.01% Tween 20, pH 7.5 (selection buffer), 1 h room temperature, wa
row,Binder,Kd [nM]
1,B10,0.44

# Target: T1, human alpha-thrombin
# Assay: bead-based fluorescence binding; apparent Kd; 50 mM Tris, 100 mM NaCl, 1 mM MgCl2, 5 mM KCl, 1 mM CaCl2, 0.01% Tween 20, pH 7.5 (selection buffer), 1 h room temperature, wa
row,Binder,Kd [nM]
1,B11,0.0081
